The results in this text go back to paper PMC6181577 (Molecular cell, 2018).

The data set “SEC” concerns the molecule itself. Nature of the data set: SEC.
For a further data set, the target named is Ubiquitin (WT) (UniProt P0CG48 1-76). Kind of data set: NMR titration.

B1: UBQLN2 450–624 (domain or fragment, human)
chain: RAMQALMQIQQGLQTLATEAPGLIPSFTPGVGVGVLGTAIGPVGPVTPIGPIGPIVPFTPIGPIGPIGPTGPAAPPGSTGSGGPTGPTVSSAAPSETTSPTSESGPNQQFIQQMVQALAGANAPQLPNPEVRFQQQLEQLNAMGFLNREANLQALIATGGDINAAIERLLGSQPSW
For the molecule B1, in “SEC”, the binding result was “binds”. Further, the Kd – broadly, the equilibrium constant for the complex coming apart – with Ubiquitin (WT) amounted to 3000 nM.

B2: UBQLN2 379–624 (domain or fragment, human)
chain: NPQLIQNMLSAPYMRSMMQSLSQNPDLAAQMMLNSPLFTANPQLQEQMRPQLPAFLQQMQNPDTLSAMSNPRAMQALMQIQQGLQTLATEAPGLIPSFTPGVGVGVLGTAIGPVGPVTPIGPIGPIVPFTPIGPIGPIGPTGPAAPPGSTGSGGPTGPTVSSAAPSETTSPTSESGPNQQFIQQMVQALAGANAPQLPNPEVRFQQQLEQLNAMGFLNREANLQALIATGGDINAAIERLLGSQPSW
Consider B2, for which the binding result in “SEC” is on record as “binds”.
